According to PMC11491553, “Structural insights into the mechanotransducing mechanism of FtsEX in cell division” (MedComm, 2024):

Biological target: the molecule itself
Experiment: cryo-EM structure; FtsE(E163Q)X with endogenously captured ATP, reconstituted into lipid nanodiscs (MSP1D1, E. coli polar extract, 1:2:200); 2.6 Å

B1: FtsE(E163Q) (enzyme, E. coli K12)
chain: IRFEHVSKAYLGGRQALQGVTFHMQPGEMAFLTGHSGAGKSTLLKLICGIERPSAGKIWFSGHDITRLKNREVPFLRRQIGMIFQDHHLLMDRTVYDNVAIPLIIAGASGDDIRRRVSAALDKVGLLDKAKNFPIQLSGGEQQRVGIARAVVNKPAVLLADQPTGNLDDALSEGILRLFEEFNRVGVTVLMATHDINLISRRSYRMLTLSDGHLHGGVGHE
notes: gene amplified from genomic DNA; The gene was amplified from genomic DNA and no truncation is mentioned; Removal of the 8×His-SUMO fusion from FtsE is not described; the complex with EnvC was recaptured on nickel; Retains endogenously captured ATP; also called NBD; FtsE of FtsE(E163Q)X; not shown: 8×His, N-terminal, kept
  stoichiometry N: 2

B2: FtsX (natural protein, E. coli K12)
chain: RFRKSVGGSGDGGRNAPKRAKSSPKPVNRKTNVFNEQVRYAFHGALQDLKSKPFATFLTVMVIAISLTLPSVCYMVYKNVNQAATQYYPSPQITVYLQKTLDDDAAAGVVAQLQAEQGVEKVNYLSREDALGEFRNWSGFGGALDMLEENPLPAVAVVIPKLDFQGTESLNTLRDRITQINGIDEVRMDDSWFARLAALTGLVGRVSAMIGVLMVAAVFLVIGNSVRLSIFARRDSINVQKLIGATDGFILRPFLYGGALLGFSGALLSLILSEILVLRLSSAVAEVAQVFGTKFDINGLSFDECLLLLLVCSMIGWVAAWLATVQHLRHFTPE
notes: FtsX, E. coli K12, integral membrane protein of FtsEX (four transmembrane helices, periplasmic loop domain); gene amplified from genomic DNA; The gene was amplified from genomic DNA and no truncation or tag on FtsX is mentioned; also called FtsX of FtsEX; TMDs and PLDs
  stoichiometry N: 2
